In patent US20230203146A1 (Boehringer Ingelheim, published 2023):
Where two headings read alike, the source gives them in different places.

T1: N-terminally FLAG-tagged mouse Ang2 (HEK293T conditioned medium) (mouse, UniProt O35608 19-496)
T1 construct: may be a nucleotide entry; also called mAng2; FLAG-mAng2
T1 sequence: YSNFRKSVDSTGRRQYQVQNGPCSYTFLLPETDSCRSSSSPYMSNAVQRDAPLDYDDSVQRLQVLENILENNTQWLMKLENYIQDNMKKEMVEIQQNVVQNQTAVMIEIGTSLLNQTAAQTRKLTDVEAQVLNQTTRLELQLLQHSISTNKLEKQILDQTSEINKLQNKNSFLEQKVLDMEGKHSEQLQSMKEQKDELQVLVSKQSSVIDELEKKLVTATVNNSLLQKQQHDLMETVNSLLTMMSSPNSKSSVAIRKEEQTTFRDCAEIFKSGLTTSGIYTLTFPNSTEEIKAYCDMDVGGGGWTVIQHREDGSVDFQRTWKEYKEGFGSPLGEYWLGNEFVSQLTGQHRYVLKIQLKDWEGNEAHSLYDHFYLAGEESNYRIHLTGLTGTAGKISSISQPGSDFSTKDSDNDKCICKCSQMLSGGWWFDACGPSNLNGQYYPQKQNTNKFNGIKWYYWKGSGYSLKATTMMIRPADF

T2: FLAG-tagged cynomolgus Ang2 (cynomolgus, UniProt O15123 19-496 (human entry), limits assumed)
T2 construct: N-terminally FLAG-tagged, conditioned medium of HEK293T cells; also called cAng2; FLAG-cAng2
T2 chain: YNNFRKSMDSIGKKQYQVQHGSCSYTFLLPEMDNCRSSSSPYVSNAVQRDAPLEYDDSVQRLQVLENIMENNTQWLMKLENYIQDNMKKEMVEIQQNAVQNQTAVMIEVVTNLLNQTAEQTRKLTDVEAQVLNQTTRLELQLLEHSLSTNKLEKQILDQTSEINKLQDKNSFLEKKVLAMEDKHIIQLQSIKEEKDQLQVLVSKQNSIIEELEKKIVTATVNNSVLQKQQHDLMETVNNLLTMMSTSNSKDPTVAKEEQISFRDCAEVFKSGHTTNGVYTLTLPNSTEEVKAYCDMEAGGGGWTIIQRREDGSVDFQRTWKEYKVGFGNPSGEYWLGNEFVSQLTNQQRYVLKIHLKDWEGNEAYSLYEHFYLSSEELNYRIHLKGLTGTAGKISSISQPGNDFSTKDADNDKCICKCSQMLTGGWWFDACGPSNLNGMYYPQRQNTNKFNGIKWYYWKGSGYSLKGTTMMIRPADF

T3: FLAG-tagged mouse Ang2 (mouse, UniProt O35608 19-496)
T3 construct: N-terminally FLAG-tagged, conditioned medium of HEK293T cells; also called mAng2; FLAG-mAng2
T3 sequence: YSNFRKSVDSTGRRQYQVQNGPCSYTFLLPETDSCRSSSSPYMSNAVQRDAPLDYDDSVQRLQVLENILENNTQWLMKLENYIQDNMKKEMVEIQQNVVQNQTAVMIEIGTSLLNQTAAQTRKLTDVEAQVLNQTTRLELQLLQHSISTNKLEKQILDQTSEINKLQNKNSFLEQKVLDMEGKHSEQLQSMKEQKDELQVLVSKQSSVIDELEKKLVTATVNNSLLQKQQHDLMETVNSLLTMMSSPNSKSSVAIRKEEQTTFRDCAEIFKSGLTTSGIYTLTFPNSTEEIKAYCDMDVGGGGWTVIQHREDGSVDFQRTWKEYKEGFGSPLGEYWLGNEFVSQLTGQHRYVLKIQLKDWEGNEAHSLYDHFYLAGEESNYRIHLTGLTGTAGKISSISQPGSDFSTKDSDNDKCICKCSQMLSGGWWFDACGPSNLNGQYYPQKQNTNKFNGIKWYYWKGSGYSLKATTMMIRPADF

B1: VHH 25F01 (VHH)
VHH: EVQLVESGGGLVQAGGSLRLSCAVSGLPFDDYVIGWFRQAPGKEREGVSCISSSDGSTYYADSVKGRFTISSDNAKNTVYLQMNSLKPEDTAAYYCAAGGPRINIATMTCSHDEYEYDYWGQGTQVTVSS
notes: also called 025F01; not shown: C-terminal c-myc tag and His6 tag
B2: VHH 22G11 (VHH)
VHH: EVQLVESGGGLVQAGGSLRLSCAVSGFTFDDYAIGWFRQAPGKEREGVSCISRSDGSPYYADSVKGRFTISSDNAKGTVYLQMSSLKPEDTAVYYCAASWSGAYYSGTYYCDRLYEYDAWGQGTQVTVSS
notes: Tested as periplasmic extract; also called 022G11; not shown: C-terminal c-myc tag and His6 tag
B3: VHH 00041 (VHH, not shown: small tags and cut ends)
VHH: EVQLVESGGGLVQPGGSLRLSCAASGFTLDDYAIGWFRQAPGKEREGVSSIRDNDGSTYYADSVKGRFTISSDNAKNTVYLQMNSLRPEDTAVYYCAAVPAGRLRFGEQWYPLYEYDAWGQGTLVTVSS
B4: VHH 00053 (VHH, not shown: small tags and cut ends)
VHH: EVQLVESGGGLVQPGGSLRLSCAASGFTLDDYAIGWFRQAPGKEREGVSSIRDNDGSTYYADSVKGRFTISRDNDKNTVYLQMNSLRPEDTAVYYCAAVPAGRLRFGEQWYPLYEYDAWGQGTLVTVSS
B5: VHH 00043 (VHH, not shown: small tags and cut ends)
VHH: EVQLVESGGGLVQPGGSLRLSCAASGFTLDDYAIGWFRQAPGKEREGVSSIRDNDGSTYYADSVKGRFTISRDNAKNTVYLQMNSLRPEDTAVYYCAAVPAGRLRFGEQWYPLYEYDAWGQGTLVTVSS
B6: VHH 00055 (VHH, not shown: small tags and cut ends)
VHH: EVQLVESGGGLVQAGGSLRLSCAASGFTLDDYAIGWFRQAPGKEREGVSSIRDNGGSTYYADSVKGRFTISSDNDKNTVYLQMNSLKPEDTAVYYCAAVPAGRLRFGEQWYPLYEYDAWGQGTLVTVSS
B7: VHH 00048 (VHH, not shown: small tags and cut ends)
VHH: EVQLVESGGGLVQAGGSLRLSCAASGFTLDDYAIGWFRQAPGKEREGVSSIRDSDGSTYYADSVKGRFTISSDNDKNTVYLQMNSLKPEDTAVYYCAAVPAGRLRFGEQWYPLYEYDAWGQGTLVTVSS
B8: VHH 00937 (VHH, not shown: small tags and cut ends)
VHH: EVQLVESGGGLVQPGGSLRLSCAVSGITLDDYAIGWFRQAPGKEREGVSAIRESGGSTYYADSVKGRFTISSDNSKNTVYLQMNSLRPEDTAVYYCAAVPAGRLRYGEQWYPIYEYDAWGQGTLVTVSS
notes: Cycle 3 variant of 28D10 on the 00908 backbone
B9: VHH 00936 (VHH, not shown: small tags and cut ends)
VHH: EVQLVESGGGLVQPGGSLRLSCAVSGITLDDYAIGWFRQAPGKEREGVSAIRDNGGSTYYADSVKGRFTISSDNSKNTVYLQMNSLRPEDTAVYYCAAVPAGRLRYGEQWYPIYEYDAWGQGTLVTVSS
notes: as for B8
B10: VHH 00934 (VHH, not shown: small tags and cut ends)
VHH: EVQLVESGGGLVQPGGSLRLSCAASGITLDDYAIGWFRQAPGKEREGVSAIRESGGSTYYADSVKGRFTISSDNSKNTVYLQMNSLRPEDTAVYYCAAVPAGRLRYGEQWYPIYEYDAWGQGTLVTVSS
notes: as for B8
B11: VHH 00054 (VHH, not shown: small tags and cut ends)
VHH: EVQLVESGGGLVQPGGSLRLSCAASGFTLDDYAIGWFRQAPGKEREGVSSIRDNDGSTYYADSVKGRFTISRDNSKNTVYLQMNSLRPEDTAVYYCAAVPAGRLRFGEQWYPLYEYDAWGQGTLVTVSS
B12: VHH 00052 (VHH, not shown: small tags and cut ends)
VHH: EVQLVESGGGLVQPGGSLRLSCAASGFTLDDYAIGWFRQAPGKEREGVSSIRDNDGSTYYADSVKGRFTISSDNDKNTVYLQMNSLRPEDTAVYYCAAVPAGRLRFGEQWYPLYEYDAWGQGTLVTVSS
B13: VHH 8A11 (VHH)
VHH: EVQLVESGGGLVQAGGSLRLSCAASGRTFSSYAMGWFRQAPGKELEFVTAVSWSGGSTYYADSVKGRFTISRDSAKNTVYLQMNSLKPEDTAVYYCAAQSTIVEVTTLEAYDYWGQGTQVTVSS
notes: also called 008A11; not shown: C-terminal c-myc tag and His6 tag
B14: VHH 32H10 (VHH)
VHH: EVQLVESGGGLVQAGGSLRLSCAASGFDFEDYDMGWFRQAPGKEREGVSYISSSDGSTYYTDSVKGRFTISSDNAKNTVYLQMNSLIPEDTAVYYCAARPWTRRVYGSSWLARSLDEYEYDYWGQGTQVTVSS
notes: also called 032H10; not shown: C-terminal c-myc tag and His6 tag
B15: VHH 15H04 (VHH)
VHH: EVQLVESGGGLVQAGGSLGLSCAASERTLPSYVMGWFRQAPGKELEFVAGISWSSGRTYYTDSVKGRFTISRDAAENTWYLQMNSLKPEDTAVYYCASNSVSEPTLHTWQYEASYDYWGQGTQVTVSS
notes: also called 015H04; not shown: C-terminal c-myc tag and His6 tag
B16: VHH 22C07 (VHH)
VHH: EVQLVESGGGLVQAGGSLRLSCAASGFTFDDYAIGWFRQAPGKEREGVSCISSSDGSTYYADSVKGRFTISSDNAKNTVYLQMNSLKPEDTAVYYCAADFIISSKRLCLDLFGSRGQGTQVTVSS
notes: also called 022C07; not shown: C-terminal c-myc tag and His6 tag

Legend:
[1] = molecular target: T1, N-terminally FLAG-tagged mouse Ang2 …; experiment: competition ELISA, periplasmic extract, FLAG-mAng2 on mTie2/Fc
Procedure: In brief, human Tie2/Fc chimera (R&D Systems, Minneapolis, Minn., USA) is biotinylated using N-hydroxysulfosuccinimide ester of biotin (Thermo Fisher Scientific, Rockford, Ill., USA). […] To this mixture, the Acceptor beads and 0.3 nM biotinylated human Tie2/Fc chimeras are added and further incubated for 2 hours at room temperature. Finally, streptavidin conjugated Donor beads (Perkin Elmer, Waltham, Mass., US) are added and the mixture is incubated for an additional 2 hours at room temperature. Assay buffer is PBS+0.03% Tween-20+0.1% BSA. Fluorescence is measured using the Envision Multilabel Plate reader (Perkin Elmer, Waltham, Mass., USA) using an excitation wavelength of 680 nm and an emission wavelength of 520 nm. […] In brief, human or mouse Tie2/Fc chimera (R&D Systems, Minneapolis, Minn., USA) are immobilized at 2 μg/mL overnight at 4° C. in a 96-well MaxiSorp plate (Nunc, Wiesbaden, Germany). Wells are blocked with a 1% casein solution. […] This mixture is added to the Tie2/Fc coated well and incubated for 2 hours at room temperature. Residual binding of Ang is detected using HRP-conjugated anti-FLAG M2 antibody (Sigma, St Louis, Mo., USA).

[2] = molecular target: T1, N-terminally FLAG-tagged mouse Ang2 …; experiment: competition ELISA, FLAG-mAng2 on coated mTie2-Fc
Procedure: (§1) In brief, 2 μg/mL of recombinant mouse Tie2-Fc or cyno Tie2-Fc is coated overnight at 4° C. in a 96-well MaxiSorp plate (Nunc, Wiesbaden, Germany). Coated wells are blocked with a 1% casein solution.

[3] = molecular target: T2, FLAG-tagged cynomolgus Ang2; experiment: competition ELISA: FLAG-cAng2 binding to coated cTie2-Fc
Procedure: as §1

FLAG-tagged mouse Ang2 = molecular target: T3, FLAG-tagged mouse Ang2; experiment: competition ELISA: FLAG-mAng2 binding to coated mTie2-Fc
Procedure: as §1

[4] = molecular target: T2, FLAG-tagged cynomolgus Ang2; experiment: competition ELISA: FLAG-cAng2 binding to coated cTie2-Fc
Procedure: as §1

[5] = molecular target: T1, N-terminally FLAG-tagged mouse Ang2 …; experiment: competition ELISA, FLAG-mAng2 on coated mTie2-Fc; remark: listed apart in the source
Procedure: as §1

Row | Binder | % inh [1] [%] | IC50 [3] [nM] | IC50 (FLAG-tagged mouse Ang2) [nM] | other results
1 | B1 | 42 |  |  | IC50 [2]: 13.3 nM
2 | B2 | 98 |  |  | 
3 | B3 |  | 0.9 | 1.7 | 
4 | B4 |  | 13.8 | 36.7 | 
5 | B5 |  | 12.6 | 29.2 | 
6 | B6 |  | 2 | 4.6 | 
7 | B7 |  | 1 | 2.1 | 
8 | B8 |  |  |  | IC50 [4]: 0.085 nM
9 | B9 |  |  |  | IC50 [4]: 0.06 nM
10 | B10 |  |  |  | IC50 [4]: 0.071 nM
11 | B11 |  | 11.7 | 22.9 | 
12 | B12 |  | 0.8 | 2.1 | 
13 | B13 | 13 |  |  | IC50 [2]: 442 nM
14 | B14 | 58 |  |  | IC50 [5]: 13 nM
15 | B15 | 38 |  |  | IC50 [2]: 125 nM
16 | B16 | 82 |  |  | IC50 [2]: 13.6 nM
